Measured values reported in the RNAGym collection of RNA variant scans (doi:10.7554/elife.80360).

B1: CPEB3 Ribozyme (parent)
chain: GGGGGCCACAGCAGAAGCGUUCACGUCGCGGCCCCUGUCAGAUUCUGGUGAAUCUGCGAAUUCUGCUGU

Variants of: B1
Experiment: self-cleavage, relative activity (ratio to wild type); higher = more cleavage; co-transcriptional

Going from C27A G56U to C27A G56C, the self-cleavage falls from 0.371 to 0.187.

Compared with C27G A40C, C27G C33G is lower in self-cleavage: 0.258 for the first, 0.241 for the second.

First: C27A C34U
Second: C27A C34A
The self-cleavage of the first is higher: 0.52 for the first, 0.164 for the second.

Compared with C27A C34G, U26G G47C is higher in self-cleavage: 0.219 for the first, 0.965 for the second.

Compared with U26G C32A, U26G C32G is lower in self-cleavage: 0.552 for the first, 0.234 for the second.

First: U26G A42C
Second: U26G A42U
The self-cleavage of the first is higher: 0.86 for the first, 0.828 for the second.

Going from U26C G37U to U26C G37A, the self-cleavage rises from 0.205 to 0.317.

Going from U26G U44G to U26G U44C, the self-cleavage rises from 0.811 to 0.866.

First: U26G U44A
Second: U26G
The self-cleavage of the first is higher: 0.925 for the first, 0.924 for the second.

First: U26C
Second: U26C C39U
The self-cleavage of the first is higher: 0.993 for the first, 0.85 for the second.

Compared with U26C C39G, U26C G41C is lower in self-cleavage: 0.939 for the first, 0.708 for the second.

Going from U26C G41A to U26C G41U, the self-cleavage rises from 0.673 to 0.8.

Compared with C27G C29G, C27A A60U is higher in self-cleavage: 0.208 for the first, 0.249 for the second.

Compared with C27A A60G, U26G U53G is higher in self-cleavage: 0.253 for the first, 0.778 for the second.

Going from U26G U53C to U26G U53A, the self-cleavage rises from 0.768 to 0.782.

Going from C27A C35U to C27A C35A, the self-cleavage falls from 0.441 to 0.209.

Going from U26C U69A to U26C U69C, the self-cleavage rises from 1.01 to 1.06.

Compared with C27A A59U, C27A A59C is higher in self-cleavage: 0.245 for the first, 0.247 for the second.

Going from C27G to C27A, the self-cleavage rises from 0.197 to 0.711.

Going from C27A G68A to C27A C63A, the self-cleavage falls from 0.853 to 0.227.

Compared with C27A U62A, C27A U62C is higher in self-cleavage: 0.288 for the first, 0.365 for the second.

Compared with C27A U62G, C27A U55C is higher in self-cleavage: 0.241 for the first, 0.272 for the second.

First: C27A U55A
Second: C27A U55G
The self-cleavage of the first is higher: 0.237 for the first, 0.226 for the second.

Compared with C27G C57A, C27G C57G is higher in self-cleavage: 0.131 for the first, 0.175 for the second.

Compared with U26G U62C, U26C G30U is lower in self-cleavage: 0.674 for the first, 0.304 for the second.

Going from U26C G30A to C27A G37U, the self-cleavage falls from 0.749 to 0.17.

Compared with C27A G37C, U26A U64A is higher in self-cleavage: 0.17 for the first, 0.628 for the second.

Going from U26A U64G to U26C C57A, the self-cleavage falls from 0.719 to 0.209.

Compared with U26C C57G, U26C A51C is higher in self-cleavage: 0.268 for the first, 0.972 for the second.

Compared with U26C A51U, U26C A51G is lower in self-cleavage: 0.982 for the first, 0.928 for the second.

Going from U26C U61A to U26C U61G, the self-cleavage falls from 0.874 to 0.693.

Compared with U26C U61C, U26G G65C is higher in self-cleavage: 0.617 for the first, 0.646 for the second.

Going from U26G G65A to U26G U69C, the self-cleavage rises from 0.643 to 1.04.

U26G U69G and U26G U69A are the same in self-cleavage: 1 for the first, 1 for the second.

Compared with C27A U61G, C27A U61C is lower in self-cleavage: 0.367 for the first, 0.191 for the second.

First: U26G U43C
Second: U26G U43G
The self-cleavage of the first is higher: 0.863 for the first, 0.801 for the second.

Compared with U26G U43A, U26G U46C is higher in self-cleavage: 0.766 for the first, 0.86 for the second.

Going from U26G U46A to U26G U46G, the self-cleavage rises from 0.854 to 0.86.

Going from U26C U53C to C27G C34U, the self-cleavage falls from 0.882 to 0.223.

First: C27G C34G
Second: U26G U36C
The self-cleavage of the first is lower: 0.142 for the first, 0.42 for the second.

Going from U26G U36G to U26C G47C, the self-cleavage rises from 0.198 to 0.978.

First: U26C G47A
Second: U26C G47U
The self-cleavage of the first is lower: 0.957 for the first, 1.01 for the second.

Compared with U26C U36A, U26C U36C is higher in self-cleavage: 0.153 for the first, 0.88 for the second.

Compared with U26C A60C, U26C A60U is higher in self-cleavage: 0.233 for the first, 0.337 for the second.

Going from C27A G65U to C27A G65C, the self-cleavage rises from 0.202 to 0.288.

Going from C27A G65A to U26G C27U, the self-cleavage rises from 0.255 to 0.605.

First: U26G C27G
Second: C27A A42C
The self-cleavage of the first is higher: 0.34 for the first, 0.286 for the second.

Going from C27A A42U to C27A A42G, the self-cleavage rises from 0.379 to 0.419.

Compared with U26A U46G, U26G A60U is lower in self-cleavage: 0.895 for the first, 0.393 for the second.

Compared with C27A C32G, C27A C32A is higher in self-cleavage: 0.155 for the first, 0.241 for the second.

First: U26C U67A
Second: U26C U67C
The self-cleavage of the first is higher: 1.01 for the first, 0.968 for the second.

Compared with U26C U67G, U26G A52G is lower in self-cleavage: 0.945 for the first, 0.914 for the second.

Going from U26G A52C to U26G A52U, the self-cleavage falls from 0.912 to 0.868.

Going from U26A U61C to U26A U61G, the self-cleavage rises from 0.403 to 0.559.

Going from U26A U69C to U26A U69G, the self-cleavage falls from 1.04 to 0.977.

Going from C27A G28U to C27A G28A, the self-cleavage falls from 0.187 to 0.18.

Going from C27A G28C to U26C G58U, the self-cleavage rises from 0.158 to 0.993.

First: U26C G58A
Second: U26C G58C
The self-cleavage of the first is lower: 0.937 for the first, 0.963 for the second.

Compared with U26C U55A, U26C U55C is higher in self-cleavage: 0.821 for the first, 0.833 for the second.

Compared with U26C U64C, U26C U64A is higher in self-cleavage: 0.688 for the first, 0.768 for the second.

Going from U26C U64G to C27G C45G, the self-cleavage falls from 0.752 to 0.144.

First: C27A A40C
Second: C27A A40G
The self-cleavage of the first is lower: 0.256 for the first, 0.452 for the second.

First: C27A A40U
Second: U26G A40G
The self-cleavage of the first is lower: 0.304 for the first, 0.75 for the second.

Compared with U26G A40C, U26G A40U is higher in self-cleavage: 0.395 for the first, 0.602 for the second.

First: U26C C45U
Second: U26A U62A
The self-cleavage of the first is higher: 0.953 for the first, 0.671 for the second.

Going from C27A C54A to U26G C57G, the self-cleavage falls from 0.25 to 0.172.

Compared with U26G C57A, C27A C39G is higher in self-cleavage: 0.339 for the first, 0.346 for the second.

Going from C27A C39U to C27A C39A, the self-cleavage falls from 0.339 to 0.205.

Going from U26C G56C to U26C G56U, the self-cleavage rises from 0.634 to 0.854.

First: U26A U53C
Second: U26A U53A
The self-cleavage of the first is lower: 0.724 for the first, 0.806 for the second.

Compared with U26A U53G, C27G A59C is lower in self-cleavage: 0.647 for the first, 0.151 for the second.

First: C27G A59U
Second: C27G A59G
The self-cleavage of the first is lower: 0.216 for the first, 0.259 for the second.

Compared with U26C C66G, U26C C66A is lower in self-cleavage: 0.692 for the first, 0.585 for the second.

Compared with U26C C63U, U26C C63G is lower in self-cleavage: 1 for the first, 0.599 for the second.

First: U26C C63A
Second: C27G A51U
The self-cleavage of the first is higher: 0.614 for the first, 0.15 for the second.

Going from C27G A51G to C27A G31C, the self-cleavage falls from 0.217 to 0.181.

Going from U26G A59G to U26G A59C, the self-cleavage falls from 0.959 to 0.36.

First: U26C U44A
Second: U26C U44C
The self-cleavage of the first is higher: 0.953 for the first, 0.941 for the second.

Going from U26C U44G to U26G U38A, the self-cleavage falls from 1.02 to 0.375.

First: U26G U38G
Second: U26G U38C
The self-cleavage of the first is lower: 0.171 for the first, 0.664 for the second.

Compared with U26G U55G, U26C G31U is higher in self-cleavage: 0.404 for the first, 0.658 for the second.

Going from U26C G31A to U26C G31C, the self-cleavage falls from 0.838 to 0.193.

Going from U26G C39A to U26G C39U, the self-cleavage rises from 0.406 to 0.731.

With U26G C39G the self-cleavage was 0.756.
